Values belong to the substance of their own block, whether it stands above or below them.
Key:
[1] = molecular target: GFP-CENP-T^1–242–I3-01 (human) (UniProt Q96BT3); assay: affinity purification with mass spectrometry
[2] = molecular target: GFP-I3-01 (recombinant); assay: fluorescence intensity of single particles
[3] = molecular target: GFP-CENP-T^1–242^/3D (human) (UniProt Q96BT3); assay: single-molecule TIRF binding assay; details: scale: NDC80^Bonsai complexes per GFP-CENP-T^1–242^/3D molecule
[4] = molecular target: GFP-CENP-T^1–242^/3D-I3-01 (human) (UniProt Q96BT3); assay: single-molecule TIRF binding assay; details: scale: NDC80^Bonsai molecules per GFP-CENP-T^1–242^/3D molecule
[5] = molecular target: GFP-CENP-T^1–242^/3D-I3-01 (human) (UniProt Q96BT3); assay: fluorescence intensity of single particles
[6] = molecular target: GFP-I3-01; assay: fluorescence intensity of single particles
[7] = molecular target: GFP-CENP-T^1–242–I3-01 (human) (UniProt Q96BT3); assay: fluorescence intensity of single particles

fold more per CENP-T molecule than with monomeric GFP-CENP-T^1–242 [1]: 5.4 fold
Substance: MIS12 complex (from UniProt Q9H081 1-205)

stoichiometry N (GFP molecules per oligomer) [2]: 44
Substance: GFP-I3-01 (recombinant)

fold more per CENP-T molecule than with monomeric GFP-CENP-T^1–242 [1]: 2.7 fold
Substance: KNL1 complex (from UniProt Q8NG31 1-2342)

stoichiometry N [3]: 0.28
stoichiometry N [4]: 2.2
Substance: GFP-tagged NDC80^Bonsai complex

stoichiometry N (molecules per complex) [5]: 66
Substance: GFP-CENP-T^1–242^/3D-I3-01 (from UniProt Q96BT3 1-242)

stoichiometry N (GFP molecules per oligomer) [6]: 51
Substance: GFP-I3-01

stoichiometry N (GFP molecules per oligomer) [7]: 41
Substance: GFP-CENP-T^1–242–I3-01 (from UniProt Q96BT3 1-242)

fold more per CENP-T molecule than with monomeric GFP-CENP-T^1–242 [1]: 5.6 fold
Substance: NDC80 complex (from UniProt O14777 1-642; Q8NBT2 1-197; Q9HBM1 1-224)

From publication doi:10.1101/2023.05.22.541649
